Reference: IntAct's records for PubMed 23434407

B1: Calcium-binding protein 39 (Homo sapiens), Q9Y376 (parent)
chain: MPFPFGKSHKSPADIVKNLKESMAVLEKQDISDKKAEKATEEVSKNLVAMKEILYGTNEKEPQTEAVAQLAQELYNSGLLSTLVADLQLIDFEGKKDVAQIFNNILRRQIGTRTPTVEYICTQQNILFMLLKGYESPEIALNCGIMLRECIRHEPLAKIILWSEQFYDFFRYVEMSTFDIASDAFATFKDLLTRHKLLSAEFLEQHYDRFFSEYEKLLHSENYVTKRQSLKLLGELLLDRHNFTIMTKYISKPENLKLMMNLLRDKSRNIQFEAFHVFKVFVANPNKTQPILDILLKNQAKLIEFLSKFQNDRTEDEQFNDEKTYLVKQIRDLKRPAQQEA

Variants of: B1
Conditions: with STK26, Q9P289-1
Chain of STK26, Q9P289-1 (Q9P289 whole entry, looked up): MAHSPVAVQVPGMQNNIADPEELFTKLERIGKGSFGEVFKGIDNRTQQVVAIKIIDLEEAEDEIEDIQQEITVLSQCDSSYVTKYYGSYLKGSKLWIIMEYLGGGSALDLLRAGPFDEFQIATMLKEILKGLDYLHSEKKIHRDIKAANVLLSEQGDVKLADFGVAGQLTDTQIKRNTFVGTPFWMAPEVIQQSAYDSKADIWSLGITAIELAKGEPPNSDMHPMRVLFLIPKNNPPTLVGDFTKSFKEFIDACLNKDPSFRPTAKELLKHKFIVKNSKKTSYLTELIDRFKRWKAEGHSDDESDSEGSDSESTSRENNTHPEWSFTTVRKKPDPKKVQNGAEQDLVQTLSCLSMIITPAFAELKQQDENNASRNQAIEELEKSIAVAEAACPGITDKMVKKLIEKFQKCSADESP

Row | Variant | effect of a mutation on the interaction
1 | MPFPFGKSHKSPADIVKNLKESMAVLEKQDISDKKAEKATEEVSKNLVAMKEILYGTNEKEPQTEAVAQLAQELYNSGLLSTLVADLQLIDFEGKKDVAQIFNNILRRQIGTRTPTVEYICTQQNILFMLLKGYESPEIALNCGIMLRECIRHEPLAKIILWSEQFYDFFRYVEMSTFDIASDAFATFKDLLTRHKLLSAEFLEQHYDRFFSEYEKLLHSENYVTKAQSLKLLGELLLDRHNFTIMTKYISKPENLKLMMNLLRDKSRNIQFEAFHVFKVFVANPNKTQPILDILLKNQAKLIEFLSKFQNDRTEDEQFNDEKTYLVKQIRDLKRPAQQEA [R227A] | decreasing interaction strength
2 | MPFPFGKSHKSPADIVKNLKESMAVLEKQDISDKKAEKATEEVSKNLVAMKEILYGTNEKEPQTEAVAQLAQELYNSGLLSTLVADLQLIDFEGKKDVAQIFNNILRRQIGTRTPTVEYICTQQNILFMLLKGYESPEIALNCGIMLRECIRHEPLAKIILWSEQFYDFFRYVEMSTFDIASDAFATFKDLLTRHKLLSAEFLEQHYDRFFSEYEKLLHSENAVTKRQSLKLLGELLLDRHNFTIMTKYISKPENLKLMMNLLRDKSRNIQFEAFHVFKVFVANPNKTQPILDILLKNQAKLIEFLSKFQNDRTEDEQFNDEKTYLVKQIRDLKRPAQQEA [Y223A] | decreasing interaction strength
3 | MPFPFGKSHKSPADIVKNLKESMAVLEKQDISDKKAEKATEEVSKNLVAMKEILYGTNEKEPQTEAVAQLAQELYNSGLLSTLVADLQLIDFEGKKDVAQIFNNILRRQIGTRTPTVEYICTQQNILFMLLKGYESPEIALNCGIMLRECIRHEPLAKIILWSEQFYDFFRYVEMSTEDIASDAFATFKDLLTRHKLLSAEFLEQHYDRFFSEYEKLLHSENYVTKRQSLKLLGELLLDRHNFTIMTKYISKPENLKLMMNLLRDKSRNIQFEAFHVFKVFVANPNKTQPILDILLKNQAKLIEFLSKFQNDRTEDEQFNDEKTYLVKQIRDLKRPAQQEA [F178E] | decreasing interaction strength
4 | MPFPFGKSHKSPADIVKNLKESMAVLEKQDISDKKAEKATEEVSKNLVAMKEILYGTNEKEPQTEAVAQLAQELYNSGLLSTLVADLQLIDFEGKKDVAQIFNNILRRQIGTRTPTVEYICTQQNILFMLLKGYESPEIALNCGIMLRECIRHEPLAKIILWSEQFYDFFRYVEMSTFDIASDAFATFKDLLTRHKLLSAEFLEQHYDRFFSEYEKLLHSENYVTKRQSLKLLGELLLDRHNFTIMTKYISKPENLKLMENLLRDKSRNIQFEAFHVFKVFVANPNKTQPILDILLKNQAKLIEFLSKFQNDRTEDEQFNDEKTYLVKQIRDLKRPAQQEA [M260E] | decreasing interaction strength
5 | MPFPFGKSHKSPADIVKNLKESMAVLEKQDISDKKAEKATEEVSKNLVAMKEILYGTNEKEPQTEAVAQLAQELYNSGLLSTLVADLQLIDFEGKKDVAQIFNNILRRQIGTRTPTVEYICTQQNILFMLLKGYESPEIALNCGIMLRECIRHEPLAKIILWSEQFYDFFRYVEMSTEDIASDAFATFKDLLTRHKLLSAEFLEQHYDRFFSEYEKLLHSENYETKRQSLKLLGELLLDRHNFTIMTKYISKPENLKLMMNLLRDKSRNIQFEAFHVFKVFVANPNKTQPILDILLKNQAKLIEFLSKFQNDRTEDEQFNDEKTYLVKQIRDLKRPAQQEA [F178E;V224E] | decreasing interaction strength

Variants of: B1
Conditions: with STK26, Q9P289-1
Remark: another data set of the same source

Row | Variant | effect of a mutation on the interaction
6 | MPFPFGKSHKSPADIVKNLKESMAVLEKQDISDKKAEKATEEVSKNLVAMKEILYGTNEKEPQTEAVAQLAQELYNSGLLSTLVADLQLIDFEGKKDVAQIFNNILRRQIGTRTPTVEYICTQQNILFMLLKGYESPEIALNCGIMLRECIRHEPLAKIILWSEQFYDFFRYVEMSTFDIASDAFATFKDLLTRHKLLSAEFLEQHYDRFFSEYEKLLHSENYVTKRQSLKLLGELLLDRHNFTIMTKYISKPENLKLMENLLRDKSRNIQFEAFHVFKVFVANPNKTQPILDILLKNQAKLIEFLSKFQNDRTEDEQFNDEKTYLVKQIRDLKRPAQQEA [M260E] | disrupting interaction strength
7 | MPFPFGKSHKSPADIVKNLKESMAVLEKQDISDKKAEKATEEVSKNLVAMKEILYGTNEKEPQTEAVAQLAQELYNSGLLSTLVADLQLIDFEGKKDVAQIFNNILRRQIGTRTPTVEYICTQQNILFMLLKGYESPEIALNCGIMLRECIRHEPLAKIILWSEQFYDFFRYVEMSTEDIASDAFATFKDLLTRHKLLSAEFLEQHYDRFFSEYEKLLHSENYETKRQSLKLLGELLLDRHNFTIMTKYISKPENLKLMMNLLRDKSRNIQFEAFHVFKVFVANPNKTQPILDILLKNQAKLIEFLSKFQNDRTEDEQFNDEKTYLVKQIRDLKRPAQQEA [F178E;V224E] | disrupting interaction strength
